Several values for one entry are separate records, joined by “and”; a condition that tells them apart may be missing. Identical values can stand only once.
Columns and labels:
[1] = molecular target: S. mutans surface protein antigen I/II (Ag I/II), proline repeat working fragment (Streptococcus mutans UA159); assay: cryo-TEM of self-assembly; protein stock (10 mg/mL, pH 3.5) diluted 10 times with 4 mM PBS (pH 7.4 in the methods, pH 8.0 in the results); 10 min assembly reaction, plunge-frozen
[2] = molecular target: recombinant human amelogenin (AmH) (human); assay: as above

Substance | stoichiometry N [1] | stoichiometry N [2]
S. mutans surface protein antigen I/II (Ag I/II), proline repeat working fragment (domain or fragment) | 6 monomers and 10 monomers | –
recombinant human amelogenin (AmH) (natural protein) | – | 6 monomers and 8 monomers

Source: publication PMC9789152
